This data set deals with the molecule itself. Description: single-molecule photobleaching step counting on DNA tightropes.

The source of these data is article doi:10.1101/2020.01.24.918300 (bioRxiv, 2020).

One may read the stoichiometry N as the number of molecules, sites or subunits per partner or assembly.

B1: cJun bZIP region fused to mNeonGreen (domain or fragment)
chain: RIKAERKRMRNRIAASKCRKRKLERIARLEEKVKTLKAQNSELASTANMLREQVAQLKQKVMNH
With B1, the “stoichiometry N” value was determined as 2.
